For 49 molecules, peptide exchange yield results are on record in US20170037110A1 (IMMATICS BIOTECHNOLOGIES, published 2017).

For this experiment, the target named is T1, HLA-A*02:01 (human).
T1 construct: monomers captured on streptavidin plates; also called MHC class I
The experiment can be described thus: UV peptide exchange ELISA. Summed up: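 Peptide-MHC complexes formed by UV-triggered exchange of a cleavable peptide for the test peptide, with stabilised complexes indicating binding. Exchange products diluted 100 fold onto streptavidin-coated wells, 1h at 37° C.; HRP anti-β2m (2 μg/ml), TMB, absorbance at 450 nm gives exchange yield.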
In general terms: An ELISA detects its analyte on a solid surface through an enzyme-linked reagent.

In the case of LLADVTHLL, the peptide exchange yield was 20 to 50%.
YLQDQHLLLTV: the peptide exchange yield was in the range of 50 to 75%.
Consider ILLDVKTRL, for which the peptide exchange yield was ≥ 75%.
QLLDETSAITL displayed a peptide exchange yield of 50 to 75%.
In the case of AMFESSQNVLL, the peptide exchange yield lay in the range of 20 to 50%.
The molecule KLLGKLPEL registered a peptide exchange yield of 50 to 75%.
Consider SLLELLHIYV, for which the peptide exchange yield is 50 to 75%.
In the case of RLLDMGETDLML, the peptide exchange yield lay in the range of 50 to 75%.
For the molecule YLFEMDSSL, the peptide exchange yield is 20 to 50%.
In the case of FLQAHLHTA, the peptide exchange yield was ≥ 75%.
The value for TMLLNIPLV was 20 to 50%; that for KVLDVSDLESV was 20 to 50%; that for ILADIVISA was 50 to 75%.
Regarding ALDEYTSEL, the peptide exchange yield was ≥ 75%.
Molecule SMHDLVLQV showed a peptide exchange yield of 50 to 75%.
With FIDEAYVEV the figure was 20 to 50%; with SIQQSIERLLV, 20 to 50%; with ALLELENSVTL, 50 to 75%.
In turn, ALYELEGTTV came in with a peptide exchange yield of 50 to 75%.
As for SLLEDKGLAEV, the peptide exchange yield was 20 to 50%.
Turning to ALQNYIKEA, the peptide exchange yield lay within 20 to 50%.
Molecule ALLELAEEL gave a peptide exchange yield of 50 to 75%.
Consider ILFANPNIFV, for which the peptide exchange yield fell in the range of 50 to 75%.
The value for ALFQATAEV was ≥ 75%.
The molecule SLLQDLVSV had a peptide exchange yield of 50 to 75%.
Turning to ALGYFVPYV, the peptide exchange yield was in the range of 50 to 75%.
For YVIDQGETDVYV, the peptide exchange yield is 50 to 75%.
VIWKALIHL had a peptide exchange yield of 50 to 75%.
For the molecule SLFKHDPAAWEA, the peptide exchange yield was ≥ 75%.
With FLLDSSASV the figure was 20 to 50%; with SLQNHNHQL, 50 to 75%; with TLYGLSVLL, 50 to 75%.
Molecule ALLDVTHSELTV gave a peptide exchange yield of 50 to 75%.
Molecule FLPDEPYIKV showed a peptide exchange yield of 50 to 75%.
SLIPNLRNV: the peptide exchange yield was in the range of 50 to 75%.
With IMEGTLTRV the figure was 20 to 50%.
For YLLPESVDL, the peptide exchange yield is 50 to 75%.
On to KMLGIPISNILMV, for which the peptide exchange yield is 50 to 75%.
The value for LLQNEQFEL was 50 to 75%.
ALFMKQIYL gave a peptide exchange yield of 50 to 75%.
On to LILEGVDTV, for which the peptide exchange yield was 20 to 50%.
The value for ILFRYPLTI was 50 to 75%; that for GLFPEHLIDV was 50 to 75%.
As for FLLQQHLISA, the peptide exchange yield is 20 to 50%.
The value for SLLEQGLVEA was 20 to 50%; that for HIYDKVMTV was 50 to 75%; that for LLDSKVPSV was 50 to 75%.
TLIEDEIATI displayed a peptide exchange yield of 20 to 50%.
SLLEVNEESTV registered a peptide exchange yield of 50 to 75%.
